Data as given in article PMC6283856 (2018).

B1: ubiquitin-specific peptidase 17 (USP17), wild type [not stated] / TNFR-associated factor 3 (TRAF3) [not stated] (parent complex)
chain 1: MEDDSLYLGGEWQFNHFSKLTSSRPDAAFAEIQRTSLPEKSPLSSEARVDLCDDLAPVARQLAPRKKLPLSSRRPAAVGAGLQNMGNTCYENASLQCLTYTPPLANYMLSREHSQTCQRPKCCMLCTMQAHITWALHSPGHVIQPSQALAAGFHRGKQEDAHEFLMFTVDAMKKACLPGHKQVDHHSKDTTLIHQIFGGCWRSQIKCLHCHGISDTFDPYLDIALDIQAAQSVKQALEQLVKPEELNGENAYHCGLCLQRAPASKTLTLHTSAKVLILVLKRFSDVTGNKLAKNVQYPECLDMQPYMSQQNTGPLVYVLYAVLVHAGWSCHDGHYFSYVKAQEGQWYKMDDAKVTACSITSVLSQQAYVLFYIQKSEWERHSESVSRGREPRALGAEDTDRRATQGELKRDHPCLQAPELDERLVERATQESTLDHWKFPQEQNKTKPEFNVRKVEGTLPPNVLVIHQSKYKCGMKNHHPEQQSSLLNLSSTTRTDQESVNTGTLASLQGRTRRSKGKNKHSKRALLVCQ
chain 2: MESSKKMDSPGALQTNPPLKLHTDRSAGTPVFVPEQGGYKEKFVKTVEDKYKCEKCHLVLCSPKQTECGHRFCESCMAALLSSSSPKCTACQESIVKDKVFKDNCCKREILALQIYCRNESRGCAEQLMLGHLLVHLKNDCHFEELPCVRPDCKEKVLRKDLRDHVEKACKYREATCSHCKSQVPMIALQKHEDTDCPCVVVSCPHKCSVQTLLRSELSAHLSECVNAPSTCSFKRYGCVFQGTNQQIKAHEASSAVQHVNLLKEWSNSLEKKVSLLQNESVEKNKSIQSLHNQICSFEIEIERQKEMLRNNESKILHLQRVIDSQAEKLKELDKEIRPFRQNWEEADSMKSSVESLQNRVTELESVDKSAGQVARNTGLLESQLSRHDQMLSVHDIRLADMDLRFQVLETASYNGVLIWKIRDYKRRKQEAVMGKTLSLYSQPFYTGYFGYKMCARVYLNGDGMGKGTHLSLFFVIMRGEYDALLPWPFKQKVTLMLMDQGSSRRHLGDAFKPDPNSSSFKKPTGEMNIASGCPVFVAQTVLENGTYIKDDTIFIKVIVDTSDLPDP
B2: ubiquitin-specific peptidase 17 (USP17), wild type [not stated] / TNFR-associated factor 2 (TRAF2) [not stated] (parent complex)
chain 1: B1 chain 1
chain 2: MAAASVTPPGSLELLQPGFSKTLLGTKLEAKYLCSACRNVLRRPFQAQCGHRYCSFCLASILSSGPQNCAACVHEGIYEEGISILESSSAFPDNAARREVESLPAVCPSDGCTWKGTLKEYESCHEGRCPLMLTECPACKGLVRLGEKERHLEHECPERSLSCRHCRAPCCGADVKAHHEVCPKFPLTCDGCGKKKIPREKFQDHVKTCGKCRVPCRFHAIGCLETVEGEKQQEHEVQWLREHLAMLLSSVLEAKPLLGDQSHAGSELLQRCESLEKKTATFENIVCVLNREVERVAMTAEACSRQHRLDQDKIEALSSKVQQLERSIGLKDLAMADLEQKVLEMEASTYDGVFIWKISDFARKRQEAVAGRIPAIFSPAFYTSRYGYKMCLRIYLNGDGTGRGTHLSLFFVVMKGPNDALLRWPFNQKVTLMLLDQNNREHVIDAFRPDVTSSSFQRPVNDMNIASGCPLFCPVSKMEAKNSYVRDDAIFIKAIVDLTGL

Variants of: B1
Test: co-immunoprecipitation (IP: Myc, IB: Flag) with band quantification; coexpressed in HEK293 cells; parent: 100; read off a plot

Variant	percent of parent [%]
chain 1 S484L	~38
chain 1 P480L	~68
chain 1 Q482R	~30

Variants of: B2
Test: as above

Variant	percent of parent [%]
chain 1 A428V	~79
chain 1 Q482R	~37
chain 1 P480L	~68

More lines, now with the values ahead:

percent of parent [%]	Variant
~29	chain 1 E431A
~33	chain 1 Q430A
~40	chain 1 S484L
